Our source for the IC50 values is article PMC3794980.

One assay has as its target HLA-A2:Ig fusion protein. The experiment in a line: fluorescence polarisation. Background: In fluorescence polarisation assays a small probe gives low polarisation when free and higher when bound to something large.
Assay [1] addresses HLA class II molecule DRB1*1501 (human (endogenous in EBV transformed homozygous cell lines)). In words: radioligand binding.
Assay [2] deals with HLA-DR DRB1*0101 (human (endogenous in EBV transformed cell lines)). In words: radioligand binding.
For assay [3], the target named is HLA-DR DRB1*0301 (human (endogenous in EBV transformed cell lines)). In words: radioligand binding.
Assay [4] deals with HLA-DR DRB1*0401 (human (endogenous in EBV transformed cell lines)). The experiment in a line: radioligand binding.
Assay [5] has as its target HLA-DR DRB1*0404 (human (endogenous in EBV transformed cell lines)). In words: radioligand binding.
Assay [6] has as its target HLA-DR DRB1*0405 (human (endogenous in EBV transformed cell lines)). The experiment in a line: radioligand binding.
Assay [7] has as its target HLA-DR DRB1*0701 (human (endogenous in EBV transformed cell lines)). The experiment in a line: radioligand binding.
Assay [8] deals with HLA-DR DRB1*0802 (human (endogenous in EBV transformed cell lines)). In words: radioligand binding.
Assay [9] concerns the target HLA-DR DRB1*0901 (human (endogenous in EBV transformed cell lines)). The experiment in a line: radioligand binding.
Assay [10] concerns the target HLA-DR DRB1*1101 (human (endogenous in EBV transformed cell lines)). The experiment in a line: radioligand binding.
Assay [11] deals with HLA-DR DRB1*1302 (human (endogenous in EBV transformed cell lines)). The experiment in a line: radioligand binding.
Assay [12] addresses HLA-DR DRB1*1501 (human (endogenous in EBV transformed cell lines)). The experiment in a line: radioligand binding.
The target in assay [13] is HLA-DR DRB4*0101 (human (endogenous in EBV transformed cell lines)). In words: radioligand binding.

A value given as a limit tells only on which side of the number the result lay.

Turning to DENV3 Env_(106–114) (peptide), the IC50 (commonly the concentration needed to halve the response being measured) with HLA-A2:Ig fusion protein was 0.0029 µM.

As for DENV3 Env_(126–140) (peptide), the IC50 in assay [1] was < 0.02 µM.

Regarding DENV3 Env_(231–245) (peptide), in [1], the IC50 is < 0.02 µM.

As to DENV3 NS3_(357–371) (peptide), the IC50 in assay [1] was < 0.02 µM.

Regarding DENV3 NS5 221-237 (peptide), the IC50 stood at 0.00397 µM in assay [2]; 0.015 µM in assay [3]; 0.00105 µM in assay [4]; 0.0843 µM in [5]; 0.025 µM in [6]; 0.0207 µM in assay [7]. The IC50 in assay [8] came out at 0.00583 µM; in [9], 0.0449 µM; in [10], 0.0309 µM; in assay [11], 0.0654 µM; in [12] it was 0.0199 µM; in [13], 0.0604 µM.

In the assay with HLA-A2:Ig fusion protein, “DENV4 inter-serotype variant of NS3_(399–407) (peptide)” displayed an IC50 of 0.061 µM.
